From patent US20260227398A1, “CD62L (L-SELECTIN) APTAMER AND ITS APPLICATION FOR T CELL ISOLATION” (University of Washington, published 2026)

What was measured:
[1] = biological target: human CD62L/L-selectin expressed on J.RT3-T3.5 cells (human) (UniProt P14151); test: flow cytometry, 50 nM antibody on J.RT3-T3.5 cells 48 hours after electroporation with SELL siRNA
[2] = biological target: T1, L-selectin (CD62L) on J.RT3-T3.5 cells (Homo sapiens, UniProt P14151 P14151:39-372); test: flow; stated as sub-nanomolar affinity; settings: tags: endogenous, J.RT3-T3.5 human T-ALL line; label: 5' 6-FAM, Cy5 or biotin (hexaethylene glycol spacer)
T1 sequence: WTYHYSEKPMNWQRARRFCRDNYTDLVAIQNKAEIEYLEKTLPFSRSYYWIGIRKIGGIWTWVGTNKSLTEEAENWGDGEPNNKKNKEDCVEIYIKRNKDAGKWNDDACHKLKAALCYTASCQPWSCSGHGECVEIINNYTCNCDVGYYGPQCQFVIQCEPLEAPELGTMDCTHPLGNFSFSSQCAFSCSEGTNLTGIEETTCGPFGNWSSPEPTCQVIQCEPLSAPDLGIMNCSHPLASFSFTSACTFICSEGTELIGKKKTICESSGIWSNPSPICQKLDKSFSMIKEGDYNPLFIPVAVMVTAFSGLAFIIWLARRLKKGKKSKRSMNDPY

[3] = biological target: T2, L-selectin (CD62L) on primary CD4+ T cells (Homo sapiens, UniProt P14151 P14151:39-372); test: flow; apparent KD +/-0.033; cryopreserved CD4+ T cells used right after thaw; DPBS Ca/Mg + 5 mM MgCl2, 4 C; settings: tags: endogenous, label: 5' 6-FAM, Cy5 or biotin (hexaethylene glycol spacer)
T2 sequence: T1 sequence

L-selectin (CD62L, SELL) [4] = biological target: T3, L-selectin (CD62L, SELL) (Homo sapiens, UniProt P14151 P14151:39-332); test: BLI; +/-0.203; 1:1 fit poor (R2 0.9029); aptamer immobilised; DPBS Ca/Mg + 5 mM MgCl2, 1% BSA, tRNA, salmon sperm DNA, Tween-20; settings: tags: recombinant human CD62L, R&D Systems; label: 5' 6-FAM, Cy5 or biotin (hexaethylene glycol spacer)
T3 sequence: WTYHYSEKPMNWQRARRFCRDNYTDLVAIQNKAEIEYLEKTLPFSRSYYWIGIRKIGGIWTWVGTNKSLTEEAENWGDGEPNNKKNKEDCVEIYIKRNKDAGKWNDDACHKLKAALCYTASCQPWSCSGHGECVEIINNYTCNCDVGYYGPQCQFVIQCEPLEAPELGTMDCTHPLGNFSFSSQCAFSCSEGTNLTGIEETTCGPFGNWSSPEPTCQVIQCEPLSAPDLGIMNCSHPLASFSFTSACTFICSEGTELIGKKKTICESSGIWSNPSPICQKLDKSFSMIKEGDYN
Method: Prior to running, Octet streptavidin (SA) biosensors (Sartorius of Göttingen, Germany) were pre-soaked in 200 μL diluent (WB supplemented with 1% BSA, 0.1 mg/mL yeast tRNA, 0.1 mg/mL salmon sperm DNA and 0.01% Tween-20). For BLI, the SA biosensors were first rinsed in 200 μL diluent for 100 sec to establish the first baseline. The rinsed sensors were transferred to wells containing 50 nM biotinylated aptamers in 200 μL diluent for aptamer immobilization onto the SA biosensors until a threshold of 0.5 nm is reached. Next, aptamer-immobilized SA biosensors were rinsed in 200 μL diluent for 100 sec to remove excess aptamers and for an additional 100 sec in 200 μL diluent to establish the second baseline. […]
To further validate A1 binding to CD62L, the expression of CD62L was knocked down in J.RT3-T3.5 cells with siRNA duplexes targeting the SELL gene, which encodes CD62L, and compared aptamer and antibody binding to J.RT3-T3.5 cells transfected with the SELL siRNA versus a control siRNA. […] The protein was serially diluted, and the association and dissociation kinetics of biotinylated CD62LApt.88 immobilized on streptavidin tips was measured. The dissociation constants (KD) were calculated by performing a global fit on the curves using a 1:1 model.

[5] = biological target: T2, L-selectin (CD62L) on primary CD4+ T …; test: flow; apparent KD +/-0.086; CD4+ T cells cultured in RPMI + 10% FBS; settings: tags: endogenous, label: 5' 6-FAM, Cy5 or biotin (hexaethylene glycol spacer)
L-selectin (CD62L, SELL) [6] = biological target: T3, L-selectin (CD62L, SELL); test: BLI; +/-0.125; R2 0.9898; aptamer immobilised; settings: tags: recombinant human CD62L, R&D Systems; label: 5' biotin
Method: (§1) Prior to running, Octet streptavidin (SA) biosensors (Sartorius of Göttingen, Germany) were pre-soaked in 200 μL diluent (WB supplemented with 1% BSA, 0.1 mg/mL yeast tRNA, 0.1 mg/mL salmon sperm DNA and 0.01% Tween-20). For BLI, the SA biosensors were first rinsed in 200 μL diluent for 100 sec to establish the first baseline. The rinsed sensors were transferred to wells containing 50 nM biotinylated aptamers in 200 μL diluent for aptamer immobilization onto the SA biosensors until a threshold of 0.5 nm is reached. Next, aptamer-immobilized SA biosensors were rinsed in 200 μL diluent for 100 sec to remove excess aptamers and for an additional 100 sec in 200 μL diluent to establish the second baseline. The sensors were then transferred to wells containing different concentrations of L-selectin in 200 μL diluent to allow aptamer association with CD62L (R&D Systems of Minneapolis, Minnesota), CD62P (ACROBiosystems of Newark, Delaware), or CD62E (ACROBiosystems). Finally, the sensors were transferred to wells containing 200 μL diluent to allow dissociation. The association and dissociation durations are indicated on the BLI curves.

E-selectin (CD62E, SELE) = biological target: T4, E-selectin (CD62E, SELE) (Homo sapiens, UniProt P16581 P16581:22-556); test: BLI; no noticeable binding up to 1000 nM CD62E; settings: tags: recombinant human CD62E, ACROBiosystems; label: 5' 6-FAM or biotin (hexaethylene glycol spacer)
T4 sequence: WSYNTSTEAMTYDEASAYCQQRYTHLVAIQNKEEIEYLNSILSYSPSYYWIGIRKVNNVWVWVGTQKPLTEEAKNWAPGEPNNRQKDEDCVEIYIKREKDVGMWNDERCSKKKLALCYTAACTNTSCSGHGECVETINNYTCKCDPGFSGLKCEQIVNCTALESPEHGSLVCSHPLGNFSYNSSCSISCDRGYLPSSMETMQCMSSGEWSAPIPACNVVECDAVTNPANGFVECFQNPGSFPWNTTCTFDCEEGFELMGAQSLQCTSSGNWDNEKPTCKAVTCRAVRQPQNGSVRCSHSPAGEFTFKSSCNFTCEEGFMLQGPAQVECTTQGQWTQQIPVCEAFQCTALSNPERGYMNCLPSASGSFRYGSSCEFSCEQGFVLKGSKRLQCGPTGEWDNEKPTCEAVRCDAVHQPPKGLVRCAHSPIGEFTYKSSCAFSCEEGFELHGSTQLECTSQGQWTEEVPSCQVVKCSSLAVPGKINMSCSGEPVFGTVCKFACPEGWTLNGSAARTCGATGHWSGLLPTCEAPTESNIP
Method: as §1, with “The association and dissociation durations are indicated on the BLI curves.” left out
(§2) The binding affinity and kinetics of CD62LApt.52 to JRT.3-T3.5 cells and to recombinant human CD62L protein was characterized by flow cytometry and BLI, respectively. […] However, no noticeable binding of CD62LApt.52 to either CD62E or CD62P at up to 1000 nM was detected by BLI (FIGS. 15A, 15B).

L-selectin (CD62L, SELL) [7] = biological target: T3, L-selectin (CD62L, SELL); test: BLI; +/-0.045; R2 0.9959; aptamer immobilised; settings: tags: recombinant human CD62L, R&D Systems; label: 5' 6-FAM or biotin (hexaethylene glycol spacer)
Method: as §1, with “The association and dissociation durations are indicated on the BLI curves.” left out
as §2

[8] = biological target: T1, L-selectin (CD62L) on J.RT3-T3.5 cells; test: flow; DPBS Ca/Mg + 5 mM MgCl2, 25 mM glucose, BSA, 4 C; settings: tags: endogenous, J.RT3-T3.5 human T-ALL line; label: 5' 6-FAM or biotin (hexaethylene glycol spacer)
P-selectin (CD62P, SELP) = P-selectin (CD62P, SELP) (Homo sapiens, UniProt P16109 P16109:42-771); test: BLI; no noticeable binding up to 1000 nM CD62P; settings: tags: recombinant human CD62P, ACROBiosystems; label: 5' 6-FAM or biotin (hexaethylene glycol spacer)
Chain of P-selectin (CD62P, SELP) (P16109 42-771, one chain of several): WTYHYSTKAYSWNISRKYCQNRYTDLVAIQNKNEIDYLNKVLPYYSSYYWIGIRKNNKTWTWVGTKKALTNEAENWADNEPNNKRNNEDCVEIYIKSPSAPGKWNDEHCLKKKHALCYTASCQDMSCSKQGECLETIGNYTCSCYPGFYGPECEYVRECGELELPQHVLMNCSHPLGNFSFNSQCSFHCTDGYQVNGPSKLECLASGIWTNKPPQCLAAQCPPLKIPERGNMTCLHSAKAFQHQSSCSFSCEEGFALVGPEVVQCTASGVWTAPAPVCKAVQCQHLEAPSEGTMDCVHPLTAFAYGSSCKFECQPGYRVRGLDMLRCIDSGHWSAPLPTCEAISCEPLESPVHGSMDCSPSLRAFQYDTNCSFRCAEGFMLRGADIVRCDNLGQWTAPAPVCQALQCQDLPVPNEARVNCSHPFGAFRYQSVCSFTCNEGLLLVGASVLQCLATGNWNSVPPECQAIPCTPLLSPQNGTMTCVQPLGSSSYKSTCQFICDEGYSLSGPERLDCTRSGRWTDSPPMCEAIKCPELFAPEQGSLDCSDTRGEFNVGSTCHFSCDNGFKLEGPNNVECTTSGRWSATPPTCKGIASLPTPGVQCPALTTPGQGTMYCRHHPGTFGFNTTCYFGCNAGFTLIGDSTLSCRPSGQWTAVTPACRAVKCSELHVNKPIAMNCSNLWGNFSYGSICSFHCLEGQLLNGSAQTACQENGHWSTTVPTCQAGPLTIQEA
Method: as §1, with “The association and dissociation durations are indicated on the BLI curves.” left out
as §2

With “Alexa Fluor 488 anti-human CD62L monoclonal antibody, clone DREG-56 (BioLegend)” as the molecule, how does the relative antibody binding after CD62L siRNA knockdown (vs control siRNA) [1] read?
Its relative antibody binding after CD62L siRNA knockdown (vs control siRNA) is 17%.

B1: CD62LApt.88 (A1, L-SA.88) (ssDNA)
DNA: ATCCAGAGTGACGCAGCATAGTCAAGGCGATAGACGAAAAACATTGTTTTCCTGGAAGGCCCAGAATCTGTGGACACGGTGGCTTAGT
With B1 as the molecule, how does the Kd [2] read?
The Kd was < 1 nM.

What about the Kd [3] of the same molecule?
Its Kd is 0.04 nM.

What about the Kd (L-selectin (CD62L, SELL) [4]) of the same molecule?
Its Kd is 4.91 nM.

What about the Kd [5] of the same molecule?
Its Kd is 0.31 nM.

B2: CD62LApt.61 (ssDNA)
DNA: AGACCCGACGCAGCATAGTCAAGGCGATAGACGAAAAACATTGTTTTCCTGGAAGGCCCAGAATCTGCG
How did the Kd (L-selectin (CD62L, SELL) [6]) turn out when B2 was run?
Its Kd is 5.81 nM.

B3: CD62LApt.52 (ssDNA)
DNA: TAGTCAAGGCGATAGACGAAAAACATTGTTTTCCTGGAAGGCCCAGAATCTG
Does B3 bind (E-selectin (CD62E, SELE))?
Result: no binding

And the Kd (L-selectin (CD62L, SELL) [7])?
The Kd was 5.3 nM.

And the Kd [8]?
The Kd was 0.19 nM.

Does B3 bind (P-selectin (CD62P, SELP))?
Result: no binding
